Measurements taken from the supplement of paper PMC12042874.
± gives the uncertainty stated by the source.

Assay: amyloid nucleation score (Sup35N fusion, yeast selection) (log enrichment); library NNK1; higher = more nucleation; inactive = no reads after selection
In short: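 After 24 hours of induction with 100 μM copper sulfate, psi-negative yeast expressing peptides of 20 random codons fused to Sup35N were grown for 7 days at 30°C on medium lacking adenine and uracil. Input and output plasmid inserts were sequenced with Illumina, and sequences with under 100 input reads were discarded. Scores for nucleation are the DiMSum log enrichment of output over input reads, centred on the mode score of non-aggregating sequences.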

Row | Substance | amyloid nucleation score
1 | EVIVYKTFEDVSQRVRHNWN | 1.89 ± 0.22
2 | CMMMYVCLLSSGHVGMSLGV | 0.18 ± 0.43
3 | HMISVDITLVSLWRRIL | -0.402 ± 0.81
4 | IVSNDKWHMWLNRL | -0.022 ± 0.24
5 | TWQAWVGCWQYQRMGTEL | 0.256 ± 0.58
6 | KLVVKWRGFLEDGDRTLWLV | 3.49 ± 0.13
7 | SDSRVVLPLLIPLSART | 0.865 ± 0.42
8 | AFGVYRVCLVWVHL | 0.232 ± 0.49
9 | MYVYVQISYFGLHCVWTMYK | -0.032 ± 0.45
10 | KETSVSLHEDGIYCGFITSN | 0.187 ± 0.28
11 | YHLTQYDTMLLQYMWNHDWD | -0.707 ± 0.89
12 | HRNWCCCCSCWSRLKMHLEL | -1.32 ± 0.64
13 | SAGAYGVRGRGSTLMVVFEW | -0.066 ± 0.54
14 | WLESRQPAEESVVVWNERVG | -0.831 ± 1.3
15 | SELEYPTMGVSVVRLCSSSG | 0.1 ± 0.48
16 | YFVGGF | -0.859 ± 0.91
17 | LFASESRWSRRYMFPWCRLC | -0.445 ± 0.91
18 | GVGEIVSNRFAIS | -0.409 ± 1
19 | QFSRTRFFICGLGRSAPAVR | 1.53 ± 0.85
20 | LCDDHRPELCVYIVWTVVGE | 3.19 ± 0.22
21 | VLLSGDIRCDTSVSVTGLSH | -0.061 ± 0.3
22 | GNDNCVRHGGRSSSRCLMKL | inactive
23 | VSQSETCPGV | 0.433 ± 0.53
24 | MYSLFMSKVRHFCVT | 2.09 ± 0.6
25 | SWHLDWFTYPFNKSD | inactive

Row | Substance | amyloid nucleation score
26 | PGLLMNRVPVSSTQYIYLEQ | 0.029 ± 0.75
27 | LKSLLNSSGVTLGEVLRMGV | -0.091 ± 0.45
28 | LTNTGEYQLVSTIPQGRHVV | -0.222 ± 0.36
29 | SRFHVKLRLYFGSNIARTSK | 6.618 ± 0.061
30 | LCQSYGCFVPYYLYDFHRVV | 6.521 ± 0.059
31 | NNWSVQSGNFTFCSGRGLCS | 7.438 ± 0.054
32 | YCVSFLRSSLP | 3.39 ± 0.12
33 | YYDYGEYIIKGVLPWIRGFY | 0.513 ± 0.31
34 | CRMTGSFKSTCRSKGLASCS | 0.002 ± 0.3
35 | RFHSFYNPQSSIDITLVGGF | 4.65 ± 0.089
36 | SDCVVVGHGVVRIYMDGVWP | 5.84 ± 0.065
37 | GRPLCSRPMILHMHNITLRM | 1.05 ± 0.97
38 | RSVYFIYTWIWQVSAVIFLC | 0.107 ± 0.2
39 | VKFIGYFLRNTSSSSCTSDP | 0.097 ± 0.58
40 | HLEGFYLGIWHGRSRVFSRN | 2.77 ± 0.23
41 | CQFDVGAQLAYYGR | inactive
42 | FYGVRVTGAAFRALVMVSPR | 0.616 ± 1.1
43 | QAVRDVRLCN | -0.073 ± 0.61
44 | RSVPCPYYGLL | 0.033 ± 0.66
45 | AFTPSWRTRLQMTTL | -0.386 ± 0.57
46 | GVYARQIFYNS | 0.021 ± 0.24
47 | SGTFLTFPYFIFCNVMICMS | 6.969 ± 0.049
48 | VVDEVNTGNHDLTTSLLQLS | -0.435 ± 0.68
49 | LGFACLSIILSRKSKMWDML | 2.13 ± 0.11
50 | KRTLYSSIRF | 1.74 ± 0.15

Row | Substance | amyloid nucleation score
51 | HSDFQDFMTDFGHDAFFKDW | 0.096 ± 0.4
52 | HLRNLKDFNVQPF | 0.635 ± 1.2
53 | HCPELLLPPSKCTIINGNDK | 1.52 ± 0.38
54 | SVCILHMRRSCVGKPPKYNA | inactive
55 | YVNRVPLLEVLCP | -0.118 ± 1
56 | LRTMGISCDWETFDLDINKG | inactive
57 | PYFDTEHERVKDH | 0.398 ± 0.62
58 | GSPMFLRIYLETYLPTYELS | 0.739 ± 0.42
59 | PCTRHCLRLHLAFMWLILAI | -0.31 ± 0.4
60 | NLTVCVQCNAAYCNYLSHRD | 7.517 ± 0.071
61 | NILCTLPSIGILSAI | -0.249 ± 0.37
62 | TRWWGPLQFVYFPD | -0.17 ± 0.68
63 | SCKDSCTEYSGAIYVLVWVK | 0.604 ± 0.56
64 | VSPLWSCFTSGVPTDCWSLG | 0.275 ± 1.2
65 | SVRVHFMVRHGLGVRLSASD | 1.61 ± 0.16
66 | TFAFISLDMVWLASAH | -0.051 ± 0.26
67 | TCFMNVSTQFCMSYKAQRSV | 0.11 ± 0.59
68 | CMKYMLCARKYFKSYSWLLS | 1.04 ± 0.73
69 | LREECKVAWYLNGDCVVYCK | inactive
70 | GREVGYVKLMDRPWPYRPAE | 0.191 ± 0.44
71 | AVPRAFIQKCSSITLSVYPM | -0.504 ± 0.99
72 | VNCVGKLKFDE | 0.05 ± 0.18
73 | KRIVCMFSWPSLT | -0.921 ± 0.88
74 | DDCRMYAFL | 0.776 ± 0.36
75 | RIAFFS | 1.25 ± 0.57

Row | Substance | amyloid nucleation score
76 | HRPYLCGISYGGSRCELYTA | 0.839 ± 0.75
77 | CGRKGEHIFYTTDNEYLNYV | 0.211 ± 0.36
78 | PWADVR | 0.721 ± 0.38
79 | CYDGDRFIEEA | 0.364 ± 0.66
80 | TFSFFDRVLSLFLN | -0.179 ± 0.44
81 | RYFCAIWLGCGERRSRVSKW | 1.38 ± 0.34
82 | VMFVPLQSVYSAP | -0.766 ± 2.4
83 | RAWQHNFGKIMRSPRVFVRW | -1.4 ± 0.94
84 | VYMRISFNEVMCFVCDTGSW | 7.485 ± 0.046
85 | STLFSWNRRNCDTHVLLVPW | inactive
86 | VDISEGCVSPVCFLMPCLMH | -0.238 ± 0.29
87 | VRCNGDLQDKYRISFCNKSR | 0.01 ± 1.2
88 | VIMPGRYVNLAHRLDACSVH | inactive
89 | TMLMNEWGMLLNKWEWA | -0.398 ± 1.1
90 | CEWVWRGSVCSIWLLVLLPV | 0.09 ± 0.41
91 | WSWRRVVAWLH | 0.727 ± 0.34
92 | VRVNRLSFLNNALLFWLFAK | 2.3 ± 0.1
93 | QLLFRRYKMGIVSRYSVITR | -0.339 ± 0.53
94 | AYLYQSSYLVRC | 0.368 ± 0.36
95 | QQVSVLILPALTKGRKVV | -0.991 ± 0.69
96 | INDSRFVAYTCLRVTEKYGL | 0.855 ± 0.22
97 | MNENCGFVKFVRSKKRFKDV | -0.287 ± 0.39
98 | VSKLICVFTGSYRNLEGYRI | 0.041 ± 0.39
99 | MNVFRGSVPAFPLPPYMRLA | -0.242 ± 0.34
100 | TRYGECAGWSGPYIADSGSA | -0.001 ± 0.31

Row | Substance | amyloid nucleation score
101 | YVTIIDKIYIWLDVVNRDLP | 2.55 ± 0.29
102 | YYRGCHLYSHHPLRGLLGGV | inactive
103 | RLAQYHMYIKFETGYN | 1.23 ± 0.36
104 | ASNTANIPYGII | 0.489 ± 0.32
105 | WHILPQVWGIVHMIRSNLVC | 0.99 ± 0.64
106 | QHPIWCNRSPLTHDRDTVG | 0.239 ± 0.24
107 | SCLVWLFRCFFRTYQYYEFI | 0.253 ± 0.24
108 | NLCVVREWYSKSCWPRFLRV | -0.274 ± 0.56
109 | YYSSHYVDIAHSKE | 0.334 ± 0.32
110 | CLLTNTKFWYISMSHDLGCL | 0.559 ± 0.34
111 | MHYRGKFLHDHWHESH | -0.485 ± 1.1
112 | LTYLWFT | -0.095 ± 0.27
113 | FMKSKAAAYS | -0.247 ± 0.63
114 | VTGWFYAGILYAFLYSQVLF | 0.171 ± 1.2
115 | NSRGAQVCDICSIRMFNCCP | 7.149 ± 0.048
116 | VSVNRVFFVSWAISKTIS | -0.689 ± 0.55
117 | SMFRAFKGYLWGNCSREAQR | 0.026 ± 0.25
118 | ILYVVWFYVLLRWVRVLLLR | 0.884 ± 0.49
119 | ISNIF | 1.67 ± 0.45
120 | CYSQDRSRLVSEDYY | -0.525 ± 0.34
121 | IYRMRDNMNSRLRVYFNRVF | inactive
122 | DYTLMRSLESPITDLQSSSG | 0.748 ± 0.88
123 | IRYQFVWSMSLCGLEMHWSS | 2.55 ± 0.21
124 | STYTALIFLHRSVFDLPSVQ | 0.787 ± 0.68
125 | RHVYW | 0.551 ± 0.39

Row | Substance | amyloid nucleation score
126 | NVIWVASYF | -0.914 ± 0.44
127 | IWVFMVVIMC | 1.07 ± 0.79
128 | GRVQGNFLINRVCRWWGVAG | 0.182 ± 0.56
129 | CVLSPALFMRARLLRGILGR | 0.332 ± 0.72
130 | RCEGYFSVDVRGYSMLEIPG | -0.365 ± 1.3
131 | YYWSYLALYSG | -0.57 ± 1.2
132 | NLREDENSGCNCGVDFLGQG | -0.435 ± 0.4
133 | DAFIV | -0.684 ± 0.54
134 | LNNYCCYIAKYVYWW | 6.089 ± 0.044
135 | WEKFIVAQIMVGHFGWVFQT | 5.36 ± 0.078
136 | VRTFWCYCTWPASRYR | -0.001 ± 0.51
137 | FYARMLYYA | inactive
138 | ILWLVMWVWTSRFVRCRRHS | -1.94 ± 2.4
139 | SARYTLKPQPWVHHLLK | 0.523 ± 0.9
140 | KYDRNFNTRWGTKDVWTLAD | -0.065 ± 0.57
141 | KVIRVYRADCCFTGWHFAVA | -0.224 ± 0.77
142 | AFWFMCWGMTRTRYV | 2.73 ± 0.11
143 | ISRGDVGVKESSGCNCVLPH | -0.587 ± 1.3
144 | CTVMDRLLTQEPTNRRWSRY | 0.06 ± 0.84
145 | SMGQHHMGGWVYGRKAEKLS | -0.185 ± 0.37
146 | CSCEVNMRLIGCKK | -0.253 ± 1.2
147 | LRSCMRGGRKYRDS | -0.903 ± 0.58
148 | NLSWRISKHMALGVRCLWCH | 0.791 ± 0.72
149 | FSVYVGVILCVSATVDVWAC | 1.87 ± 0.23
150 | ETHLIGVCYNRCL | 0.643 ± 0.42

Row | Substance | amyloid nucleation score
151 | AYCRTNTNLRVLRIWNK | -0.611 ± 0.53
152 | MWLQHYWTHQAY | 0.59 ± 0.88
153 | PMVTSSCFRCTLLCSQFWQF | 0.444 ± 0.26
154 | VSGRVGKNAGITGM | 0.813 ± 1.1
155 | LVRTIVLNKRIMWMIQLCFK | 0.86 ± 0.63
156 | RLSLETIVASFIYCCCAKFA | 1.66 ± 0.5
157 | LNVNRWYTISL | 0.972 ± 0.25
158 | ACKCAFSGFSYVAFGPVMGG | -1.61 ± 1.9
159 | FSMGGYFLFLCNNFTLYHIS | 7.598 ± 0.07
160 | CSNVGVCGMSIH | 5.01 ± 0.052
161 | MVGSKSGKDGAQASSRKLAF | 0.708 ± 0.34
162 | DFPVAIVDLRVCWSYLL | 0.526 ± 0.68
163 | LWGWGFSSEANPIGGRGILN | 0.277 ± 0.53
164 | TSSPSVTYLLRYRLQWTLHN | 0.035 ± 0.76
165 | WSSHYVSLRKVCVCGRRPWS | 3.46 ± 0.079
166 | RSSKGIPLMENPLVYTMASR | 0.005 ± 1.7
167 | YRLGSKISNSVKPRFDRLVE | inactive
168 | ISLCCTSTYLTVSYGTDRS | 6.487 ± 0.061
169 | KTWRHSFLYFLTGIESRKGA | 0.094 ± 0.26
